Measurements taken from patent US20020077295A1 (YALE UNIVERSITY, published 2002).
Each block holds one binder with its values, some of them ahead of it. Where no end group is shown, it is not given here.

B2: AP-Nogo (His-AP-Nogo, 66 amino acid) (ligand)
chain: HHHHHHIIPVEEENPDFWNREAAEALGAAKKLQPAQTAAKNLIIFLGDGMGVSTVTAARILKGQKKDKLGPEIPLAMDRFPYVALSKTYNVDKHVPDSGATATAYLCGVKGNFQTIGLSAAARFNQCNTTRGNEVISVMNRAKKAGKSVGVVTTTRVQHASPAGTYAHTVNRNWYSDADVPASARQEGCQDIATQLISNMDIDVILGGGRKYMFRMGTPDPEYPDDYSQGGTRLDGKNLVQEWLAKRQGARYVWNRTELMQASLDPSVTHLMGLFEPGDMKYEIHRDSTLDPSLMEMTEAALRLLSRNPRGFFLFVEGGRIDHGHHESRAYRALTETIMFDDAIERAGQLTSEEDTLSLVTADHSHVFSFGGYPLRGSSIFGLAPGKARDRKAYTVLLYGNGPGYVLKDGARPDVTESESGSPEYRQQSAVPLDEETHAGEDVAVFARGPQAHLVHGVQEQTFIAHVMAFAACLEPYTACDLAPPAGTTDAAHPGRIYKGVIQAIQKSDEGHPFRAYLESEVAISEELVQKYSNSALGHVNCTIKELRRLFLVDDLVDSLK
notes: also called AP fused Nogo-66
B3: murine NgR (Nogo-66 receptor) expressed on COS-7 cells (receptor)
chain: CPGACVCYNEPKVTTSCPQQGLQAVPTGIPASSQRIFLHGNRISHVPAASFQSCRNLTILWLHSNALARIDAAAFTGLTLLEQLDLSDNAQLHVVDPTTFHGLGHLHTLHLDRCGLRELGPGLFRGLAALQYLYLQDNNLQALPDNTFRDLGNLTHLFLHGNRIPSVPEHAFRGLHSLDRLLLHQNHVARVHPHAFRDLGRLMTLYLFANNLSMLPAEVLMPLRSLQYLRLNDNPWVCDCRARPLWAWLQKFRGSSSEVPCNLPQRLADRDLKRLAASDLEGCAVASGPFRPIQTSQLTDEELLSLPKCCQPDAADKASVLEPGRPASAGNALKGRVPPGDTPPGNGSGPRHINDSPFGTLPSSAEPPLTALRPGGSEPPGLPTTGPRRRPGCSRKNRTRSHCRLGQAGSGASGTGDAEGS
notes: Library clone or pcDNA3.1 construct transfected into COS-7 cells; GPI-linked protein, cleavage site of the GPI signal not applied here; also called mouse NgR; mNgR

What was measured:
[1] = molecular target: B3; assay: binding to mNgR, data not shown
[2] = molecular target: B2; assay: AP-hNogo-A(1055-1120) binding to transfected COS-7 cells
Protocol: Forty-eight hours after the transfection, the transfected COS-7 cells were washed with hanks balanced salt solution containing 20 mM sodium HEPES, pH 7.05, and 1 mg/ml bovine serum albumin (BSA) [hereinafter “HBH”]. […] AP-fusion protein was detected as previously described for AP-Sema3A (Takahashi et al., Nature Neurosci. 1:487-493, 1998).
Because the NgRΔ1-2, NgRΔ3-4, NgRΔ5-6, and NgRΔ7-8 deletions remove entire LRR domains it is unlikely that the entire tertiary structure of mNgR is disrupted.

[3] = molecular target: T1, AP-NgR (mNgR residues 27-451 fused to 6xHis-placental alkaline phosphatase) (mouse, UniProt P05187 23-511 (human entry)); assay: AP-NgR binding to transfected COS-7 cells
T1 construct: Soluble probe in the self-association test

[4] = molecular target: T2, Nogo binding sites (axonal Nogo receptors) on chick dorsal root ganglion neurons (chick); assay: AP-fusion ligand binding to dissociated neurons, Scatchard analysis
T2 construct: Target is defined only by the cells that carry it; also called neuronal receptor site
Protocol: Purified protein was subjected to SDS-PAGE and stained for total protein with CBB or immunoblotted with anti-Nogo antibodies (anti-Nogo). Molecular weight markers of 200, 116, 97, 65 and 45 kDa are shown at left, and the migration of AP-Nogo at right. (b) is a photograph of dissociated chick E12 dorsal root ganglion neurons that were incubated with 10 nM AP-Nogo or 10 nM AP-Nogo+160 nM GST-Nogo for sixty minutes at 23° C. The cells were washed, fixed and incubated at 60° C. in order to inactivate endogenous AP. Bound AP-Nogo was detected by incubation with nitro blue tetrazolium. Note the intense neuronal staining by AP-Nogo that is displaced by unlabeled ligand. (c) is a graph displaying experimental data where the potency of AP-Nogo and GST-Nogo in E12 chick dorsal root ganglion growth cone collapse assays was assessed as described in the Example section. […] The means±s.e.m. calculated from five to eight determinations are illustrated. (d) is a graph displaying experimental data where the binding of 10 nM AP-Nogo to chick E12 dorsal root ganglion neurons was assessed alone, or in the presence of 100 nM GST-Nogo or in the presence of 4 μM Pep2, which was quantified from experiments as in (b) by the method described in the Example section. The means±s.e.m. calculated from eight determinations are shown. […]

[5] = molecular target: T2, Nogo binding sites (axonal Nogo …); assay: cell-based or functional assay
[6] = molecular target: B2; assay: AP-fusion binding to COS-7 cells expressing mouse NgR
[7] = molecular target: T3, AP (alkaline phosphatase alone) (UniProt P05187 23-511); assay: AP binding to COS-7 cells transfected with the mouse NgR clone
T3 construct: Control without Nogo residues; also called AP alone
Description: This assay was utilized for expression cloning of a NgR. Pools of a mouse adult brain cDNA expression library representing 250,000 independent clones were transfected into non-neuronal COS-7 cells. […] Single cDNA clones encoding a Nogo biding site were isolated by sib-selection from each of the two positive pools. The two independently isolated clones are identical to one another except for a 100 bp extension of the 5′ untranslated region in one clone. […] Furthermore, GST-Nogo displaces AP-Nogo from these sites.

[8] = molecular target: B2; assay: AP-Nogo binding to COS-7 cells transfected with the mouse NgR clone
Description: A Nogo binding assay was developed which utilizes a method widely used in examining semaphorin and ephrin axonal guidance function (Flanagan & Vanderhaeghen, (1998) Annu. Rev. Neurosci. 21, 309-345; Takahashi et al., (1999) Cell 99, 59-69). It involves fusing a secreted placental alkaline phosphatase (AP) moiety to the ligand in question to provide a biologically active receptor binding agent which can be detected with an extremely sensitive colorimetric assay. For Nogo, an expression vector was created encoding a signal peptide, a His6 tag for purification, AP and the 66 amino acid active domain of Nogo. The fusion protein can be purified from the conditioned medium of transfected cells in milligram amounts (FIG. 5). This protein is biologically active as a growth cone collapsing agent, with an EC₅₀ of 1 nM. […] Binding is blocked by GST-Nogo and by the antagonistic 25 amino acid peptides, consistent with competitive binding to a neuronal receptor site.
This assay was utilized for expression cloning of a NgR. Pools of a mouse adult brain cDNA expression library representing 250,000 independent clones were transfected into non-neuronal COS-7 cells. […] Single cDNA clones encoding a Nogo biding site were isolated by sib-selection from each of the two positive pools. […]

[9] = molecular target: B3; assay: 140-AP binding to COS-7 cells expressing mNgR, bound/free plot
Protocol: To determine if AP-fused deletion mutants of Nogo-66 bind mouse NgR (“mNgR”), COS-7 cells were transfected with a plasmid encoding the mouse NgR sequence ligated into pcDNA3.1. 48 hours after transfection, cells were washed with HBH (Hanks balanced salt solution containing 20 mM sodium Hepes, pH 7.05, and 1 mg ml⁻¹ bovine serum albumin) and then incubated with condition medium containing one of the AP-fusion proteins described above for 2 hours at 37° C. Cells were then washed, fixed, and left in HBH at 67° C. for 14-16 h to inactivate endogenous AP. AP-fusion protein binding to NgR expressing COS-7 cells was detected with the substrates NBT and BCIP (FIG. 13b).
FIG. 14b graphically depicts the binding of 140-AP to COS-7 cells expressing mNgR as measured as a function of 140-AP concentration.

Binder: B2
- Kd [4]: 3 nM
- growth cone collapse, chick E12 dorsal root ganglion (EC50) [5]: 1 nM

Binder: B3
- Kd [6]: ~7 nM
- binding result [7]: no binding
- Kd [8]: ~3 nM

B4: 140-AP (fusion protein containing AP and the 1-40 peptide, residues #1055-1094 of hNogoA) (ligand)
chain: RIYKGVIQAIQKSDEGHPFRAYLESEVAISEELVQKYSNS
modifications: also: fused to alkaline phosphatase (AP), order not given here
notes: not shown: alkaline phosphatase of vector pcAP-6
- Kd [9]: 8 nM

The next lines start with the values.

- binding result [1]: no binding
Binder: IQKSDEGHPFRAYLESEVAISEELVQKYSNS [peptide having residues 10-40 of hNogoA(#1055-1120)]

- binding result [2]: no binding
- binding result [3]: no binding
B1: NgRΔNT (residues 58 to 473 of mNgR) (receptor, not shown: small tags and cut ends)
chain: SSQRIFLHGNRISHVPAASFQSCRNLTILWLHSNALARIDAAAFTGLTLLEQLDLSDNAQLHVVDPTTFHGLGHLHTLHLDRCGLRELGPGLFRGLAALQYLYLQDNNLQALPDNTFRDLGNLTHLFLHGNRIPSVPEHAFRGLHSLDRLLLHQNHVARVHPHAFRDLGRLMTLYLFANNLSMLPAEVLMPLRSLQYLRLNDNPWVCDCRARPLWAWLQKFRGSSSEVPCNLPQRLADRDLKRLAASDLEGCAVASGPFRPIQTSQLTDEELLSLPKCCQPDAADKASVLEPGRPASAGNALKGRVPPGDTPPGNGSGPRHINDSPFGTLPSSAEPPLTALRPGGSEPPGLPTTGPRRRPGCSRKNRTRSHCRLGQAGSGASGTGDAEGS
notes: In pSecTag2, on COS-7 cells; vector tags as for wtNgR; also called amino terminus deletion

- binding result [2]: no binding
- binding result [3]: no binding
B5: NgLRR- (residues 306 to 473 of mNgR) (receptor, not shown: small tags and cut ends)
chain: LEGCAVASGPFRPIQTSQLTDEELLSLPKCCQPDAADKASVLEPGRPASAGNALKGRVPPGDTPPGNGSGPRHINDSPFGTLPSSAEPPLTALRPGGSEPPGLPTTGPRRRPGCSRKNRTRSHCRLGQAGSGASGTGDAEGS
notes: In pSecTag2, on COS-7 cells; also called complete LRR domain deleted
